Assay results: paper PMC5707476, “Enzyme repurposing of a hydrolase as an emergent peroxidase upon metal binding” (Chemical Science, 2015)

Substrate: COc1cc(-c2ccc(N)c(OC)c2)ccc1N
Test: purified protein
Assay type: biochemical, Mycolicibacterium smegmatis
Details: 6.6 mM t-BuOOH, 4.5 μM Cu(II)
[1] = 6-PGLac (parent), 1.25 μM protein, MES pH 6.5, 150 mM NaCl, 25 °C, free copper background subtracted
[2] = D131N (reversion of parent N131D = natural sequence), 1.25 μM protein, MES pH 6.5, 150 mM NaCl, 25 °C, free copper background subtracted
[3] = H95A on the N131D parent, MES pH 6.5, 25 °C
[4] = H9A on the N131D parent, MES pH 6.5, 25 °C
[5] = Y69L on the N131D parent, MES pH 6.5, 25 °C
[6] = Y69W on the N131D parent, MES pH 6.5, 25 °C
[7] = Y69F on the N131D parent, MES pH 6.5, 25 °C

B1: 6-phosphogluconolactonase (6-PGLac; Cu·6-PGLac) (Mycolicibacterium smegmatis MC2 155; N131D) (protein)
chain: MSDTVIERHADTAALVAAAGDRLVDAISSAIGERGQATIVLTGGGTGIGLLKRVRERSGEIDWSKVHIYWGDERFVPQDDDERNDKQAREALLDHIGIPPVNVHAMAASDGEFGDDLEAAAAGYAQLLSADFDSSVPGFDVHLLGMGGEGHVNSLFPDTDAVRETERLVVGVSDSPKPPPRRITLTLPAVQNSREVWLVVSGEAKADAVAAAVGGADPVDIPAAGAVGRERTVWLVDEAAAAKL
notes: Strep-tag II, expressed in E. coli, purified, loaded with Cu(II)
- Km [1]: 11 ± 3 µM
- kcat [1]: 78 ± 4 × 10^-3 s^-1
- kcat/Km [1]: 6900 ± 2000 M⁻¹ s⁻¹
- Km [2]: 21 ± 6 µM
- kcat [2]: 150 ± 10 × 10^-3 s^-1
- kcat/Km [2]: 7200 ± 2000 M⁻¹ s⁻¹

B2: 6-phosphogluconolactonase (6-PGLac; Cu·6-PGLac) (Mycolicibacterium smegmatis MC2 155; H95A/N131D) (protein)
chain: MSDTVIERHADTAALVAAAGDRLVDAISSAIGERGQATIVLTGGGTGIGLLKRVRERSGEIDWSKVHIYWGDERFVPQDDDERNDKQAREALLDAIGIPPVNVHAMAASDGEFGDDLEAAAAGYAQLLSADFDSSVPGFDVHLLGMGGEGHVNSLFPDTDAVRETERLVVGVSDSPKPPPRRITLTLPAVQNSREVWLVVSGEAKADAVAAAVGGADPVDIPAAGAVGRERTVWLVDEAAAAKL
notes: as for B1
- Km [3]: 17 ± 5 µM
- kcat [3]: 80 ± 6 × 10^-3 s^-1
- kcat/Km [3]: 4600 ± 2000 M⁻¹ s⁻¹

B3: 6-phosphogluconolactonase (6-PGLac; Cu·6-PGLac) (Mycolicibacterium smegmatis MC2 155; H9A/N131D) (protein)
chain: MSDTVIERAADTAALVAAAGDRLVDAISSAIGERGQATIVLTGGGTGIGLLKRVRERSGEIDWSKVHIYWGDERFVPQDDDERNDKQAREALLDHIGIPPVNVHAMAASDGEFGDDLEAAAAGYAQLLSADFDSSVPGFDVHLLGMGGEGHVNSLFPDTDAVRETERLVVGVSDSPKPPPRRITLTLPAVQNSREVWLVVSGEAKADAVAAAVGGADPVDIPAAGAVGRERTVWLVDEAAAAKL
notes: as for B1
- Km [4]: 12 ± 5 µM
- kcat [4]: 80 ± 6 × 10^-3 s^-1
- kcat/Km [4]: 6500 ± 3000 M⁻¹ s⁻¹

B4: 6-phosphogluconolactonase (6-PGLac; Cu·6-PGLac) (Mycolicibacterium smegmatis MC2 155; N131D/Y69L) (protein)
chain: MSDTVIERHADTAALVAAAGDRLVDAISSAIGERGQATIVLTGGGTGIGLLKRVRERSGEIDWSKVHILWGDERFVPQDDDERNDKQAREALLDHIGIPPVNVHAMAASDGEFGDDLEAAAAGYAQLLSADFDSSVPGFDVHLLGMGGEGHVNSLFPDTDAVRETERLVVGVSDSPKPPPRRITLTLPAVQNSREVWLVVSGEAKADAVAAAVGGADPVDIPAAGAVGRERTVWLVDEAAAAKL
notes: as for B1
- Km [5]: 82 ± 10 µM
- kcat [5]: 490 ± 30 × 10^-3 s^-1
- kcat/Km [5]: 5900 ± 900 M⁻¹ s⁻¹

B5: 6-phosphogluconolactonase (6-PGLac; Cu·6-PGLac) (Mycolicibacterium smegmatis MC2 155; N131D/Y69W) (protein)
chain: MSDTVIERHADTAALVAAAGDRLVDAISSAIGERGQATIVLTGGGTGIGLLKRVRERSGEIDWSKVHIWWGDERFVPQDDDERNDKQAREALLDHIGIPPVNVHAMAASDGEFGDDLEAAAAGYAQLLSADFDSSVPGFDVHLLGMGGEGHVNSLFPDTDAVRETERLVVGVSDSPKPPPRRITLTLPAVQNSREVWLVVSGEAKADAVAAAVGGADPVDIPAAGAVGRERTVWLVDEAAAAKL
notes: as for B1
- Km [6]: 4.8 ± 2 µM
- kcat [6]: 33 ± 2 × 10^-3 s^-1
- kcat/Km [6]: 6900 ± 3000 M⁻¹ s⁻¹

B6: 6-phosphogluconolactonase (6-PGLac; Cu·6-PGLac) (Mycolicibacterium smegmatis MC2 155; N131D/Y69F) (protein)
chain: MSDTVIERHADTAALVAAAGDRLVDAISSAIGERGQATIVLTGGGTGIGLLKRVRERSGEIDWSKVHIFWGDERFVPQDDDERNDKQAREALLDHIGIPPVNVHAMAASDGEFGDDLEAAAAGYAQLLSADFDSSVPGFDVHLLGMGGEGHVNSLFPDTDAVRETERLVVGVSDSPKPPPRRITLTLPAVQNSREVWLVVSGEAKADAVAAAVGGADPVDIPAAGAVGRERTVWLVDEAAAAKL
notes: as for B1
- Km [7]: 36 ± 8 µM
- kcat [7]: 100 ± 7 × 10^-3 s^-1
- kcat/Km [7]: 2900 ± 700 M⁻¹ s⁻¹
